Consider one molecule from publication PMC2175354.

Holding throughout (experiment): EMSA
Background: A gel shift assay detects complexes by their altered migration in electrophoresis.

Series [1] deals with MyoD full-length (Mus musculus, UniProt P10085 1-318).
The target in series [2] is MyoD ΔR1R2R3 (Mus musculus, UniProt P10085 1-318, del102-104;del110-112;del119-121).
The target in series [3] is MyoD bHLH domain (UniProt P10085 102-162).
Series [4] addresses MyoD R111C (Mus musculus, UniProt P10085 1-318, R111C).
For series [5], the target named is MyoD ΔR2R3 (Mus musculus, UniProt P10085 1-318, del110-112;del119-121).
The target in series [6] is MyoD ΔR1R3 (Mus musculus, UniProt P10085 1-318, del102-104;del119-121).
Series [7] deals with MyoD Δ1-93 (activation and C/H regions deleted) (Mus musculus, UniProt P10085 94-318, del1-93).
In series [8] the target is MyoD Δ102-114 (UniProt P10085 1-318, del102-114).
The target in series [9] is MyoD ΔR3 (Mus musculus, UniProt P10085 1-318, del119-121).
For series [10], the target named is MyoD Δ3-56 (activation region deleted) (Mus musculus, UniProt P10085 1-318, del3-56).
The target of series [11] is MyoD Δ1-121 (activation, C/H and basic regions deleted) (Mus musculus, UniProt P10085 122-318, del1-121).

B1: E-box DNA (dsDNA)
DNA 1: TCGATCCCCCAACACCTGCTGCCTGA
DNA 2: TCAGGCAGCAGGTGTTGGGGGATCGA
Consider B1, for which the binding result in series [1] is recorded as “binds”; in series [2] it was “no binding”; in series [3], “binds”; in [4], “no binding”; in series [5], “no binding”; in series [6], “no binding”. For the same molecule, the binding result in series [7] was “binds”; in [8] it was “no binding”; in series [9], “no binding”; in series [10], “binds”; in series [11], “no binding”.
